In the supplement of paper PMC9112550, “Optimization of the antimicrobial peptide Bac7 by deep mutational scanning” (BMC Biology, 2022):

Test system: Escherichia coli TOP10
Test: shrunken log2 fold change of peptide-encoding DNA abundance (4.5 h post-induction vs induction); higher = less antimicrobial activity (less host growth inhibition)
Details: time post-induction: 4.5 h; library: site-saturation at positions 5, 18, 19, 20
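Further: peptides expressed intracellularly from a pBAD plasmid library in pooled LB shake-flask culture, induced with 0.3% L-arabinose, DNA abundance read by NGS, three biological replicates, DESeq2 with apeglm shrinkage.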

Sequence | shrunken log2 fold change
RRIRLRPPRLPRPRPRPDMLPRP | -0.125
RRIRFRPPRLPRPRPRPILKPRP | -0.43
RRIRARPPRLPRPRPRPAVMPRP | 0.399
RRIRKRPPRLPRPRPRPKLNPRP | 0.218
RRIRGRPPRLPRPRPRPLSAPRP | 0.507
RRIRCRPPRLPRPRPRPKNKPRP | -0.244
RRIRGRPPRLPRPRPRPMGFPRP | 0.315
RRIRLRPPRLPRPRPRPQMWPRP | 0.0549
RRIRARPPRLPRPRPRPRIRPRP | 0.322
RRIRVRPPRLPRPRPRPRHIPRP | -0.508
RRIRARPPRLPRPRPRPACAPRP | 0.922
RRIRWRPPRLPRPRPRPATSPRP | 0.385
RRIRSRPPRLPRPRPRPFSSPRP | -0.113
RRIRTRPPRLPRPRPRPKMWPRP | 0.307
RRIRQRPPRLPRPRPRPRYMPRP | -0.0938
RRIRRRPPRLPRPRPRPAQTPRP | 0.348
RRIRDRPPRLPRPRPRPALLPRP | 1.02
RRIRHRPPRLPRPRPRPNNCPRP | -0.0202
RRIRCRPPRLPRPRPRPYWMPRP | -1.07
RRIRYRPPRLPRPRPRPISSPRP | -0.262
RRIRARPPRLPRPRPRPNQRPRP | 0.532
RRIRIRPPRLPRPRPRPGVAPRP | 0.276
RRIRKRPPRLPRPRPRPTHWPRP | 0.796
RRIRQRPPRLPRPRPRPNGKPRP | -0.362
RRIRPRPPRLPRPRPRPEATPRP | 0.33

Sequence | shrunken log2 fold change
RRIRMRPPRLPRPRPRPYRYPRP | -0.133
RRIRERPPRLPRPRPRPYHDPRP | -0.114
RRIRRRPPRLPRPRPRPKCLPRP | 0.144
RRIRKRPPRLPRPRPRPNWHPRP | -0.0566
RRIRPRPPRLPRPRPRPNMMPRP | -0.593
RRIRWRPPRLPRPRPRPTKNPRP | 0.159
RRIRQRPPRLPRPRPRPNFNPRP | -0.295
RRIRYRPPRLPRPRPRPPHKPRP | -0.549
RRIRDRPPRLPRPRPRPSVGPRP | 0.217
RRIRSRPPRLPRPRPRPQPPPRP | 0.489
RRIRNRPPRLPRPRPRPWMFPRP | -0.182
RRIRYRPPRLPRPRPRPFEGPRP | -0.000989
RRIRQRPPRLPRPRPRPDANPRP | 0.0607
RRIRYRPPRLPRPRPRPAFWPRP | 0.444
RRIRKRPPRLPRPRPRPTACPRP | 0.108
RRIRERPPRLPRPRPRPTAFPRP | -0.16
RRIRARPPRLPRPRPRPKVQPRP | 0.0571
RRIRYRPPRLPRPRPRPLIWPRP | -0.256
RRIRMRPPRLPRPRPRPMIIPRP | -0.117
RRIRIRPPRLPRPRPRPAFRPRP | 2.17
RRIRYRPPRLPRPRPRPIWYPRP | -0.0575
RRIRHRPPRLPRPRPRPLYWPRP | -0.276
RRIRTRPPRLPRPRPRPCMVPRP | -0.576
RRIRFRPPRLPRPRPRPTFEPRP | -0.00113
RRIRWRPPRLPRPRPRPQKRPRP | 0.00899

Sequence | shrunken log2 fold change
RRIRERPPRLPRPRPRPEDNPRP | 0.0813
RRIRFRPPRLPRPRPRPKFTPRP | 0.012
RRIRIRPPRLPRPRPRPTPQPRP | -0.117
RRIRYRPPRLPRPRPRPPQQPRP | 0.0729
RRIRLRPPRLPRPRPRPRFEPRP | 0.529
RRIRIRPPRLPRPRPRPPPQPRP | 0.52
RRIRARPPRLPRPRPRPEMMPRP | 1.12
RRIRTRPPRLPRPRPRPGRTPRP | -0.0318
RRIRGRPPRLPRPRPRPECDPRP | 2.16
RRIRTRPPRLPRPRPRPKWLPRP | 0.247
RRIRRRPPRLPRPRPRPSTGPRP | 0.112
RRIRFRPPRLPRPRPRPMATPRP | -0.227
RRIRVRPPRLPRPRPRPAMTPRP | 0.0589
RRIRYRPPRLPRPRPRPTLNPRP | -0.54
RRIRCRPPRLPRPRPRPEKGPRP | 0.0373
RRIRARPPRLPRPRPRPVNIPRP | -0.123
RRIRHRPPRLPRPRPRPVLKPRP | -0.295
RRIRVRPPRLPRPRPRPKAPPRP | 0.592
RRIRLRPPRLPRPRPRPIAQPRP | -0.0527
RRIRGRPPRLPRPRPRPYEKPRP | -0.0149
RRIRSRPPRLPRPRPRPKCHPRP | -0.31
RRIRTRPPRLPRPRPRPWIDPRP | -0.0368
RRIRLRPPRLPRPRPRPDGLPRP | -0.115
RRIRFRPPRLPRPRPRPYSWPRP | -0.159
RRIRERPPRLPRPRPRPILMPRP | -0.317
